# In PMC4325984 (The Biochemical journal, 2015):
# Molecular target: rabbit muscle ADP-G-actin (rabbit, UniProt P68135 1-377)
# Test: ITC
Binder,Kd,dH,stoichiometry N
UNC-60B (natural protein) MASGVKVDPSCKNAYDLLHNKHQHSYIIFKIDKNDTAIVVEKVGEKNAPYAEFVEEMKKLVEDGKECRYAAVDVEVTVQRQGAEGTSTLNKVIFVQYCPDNAPVRRRMLYASSVRALKASLGLESLFQVQASEMSDLDEKSVKSDLMSNQRI,8.62 nM,-6.72 ± 0.117 kcal/mol,
UNC-60A (natural protein) MSSGVMVDPDVQTSFQKLSEGRKEYRYIIFKIDENKVIVEAAVTQDQLGITGDDYDDSSKAAFDKFVEDVKSRTDNLTDCRYAVFDFKFTCSRVGAGTSKMDKIIFLQICPDGASIKKKMVYASSAAAIKTSLGTGKILQFQVSDESEMSHKELLNKLGEKYGDH,32.2 nM,-2.31 ± 0.0711 kcal/mol,1
